Assay results published in the Human Domainome abundance scans (Beltran et al. 2025).
± gives the uncertainty stated by the source.

B1: Ras GTPase-activating protein 1, residues 281 to 341; numbered along this chain, P20936 (parent)
chain: RRRVRAILPYTKVPDTDEISFLKGDMFIVHNELEDGWMWVTNLRTDEQGLIVEDLVEEVGR

Variants of: B1
Test: abundance fitness (aPCA) (normalised: wild type 0, dead -1); higher = more abundant; growth selection in yeast, the domain comes from the species named
Conditions: Homo sapiens

Variant	abundance fitness
A6W	-0.953 ± 0.051
A6R	-0.908 ± 0.029
A6L	-0.896 ± 0.029
A6Q	-0.915 ± 0.061
A6S	-0.258 ± 0.02
A6D	-0.953 ± 0.035
V13Y	-0.137 ± 0.028
V13K	0.02 ± 0.072
V13N	0.058 ± 0.031
V13S	-0.015 ± 0.025
D25W	-1.11 ± 0.17
D25E	-0.712 ± 0.094
D25P	-0.664 ± 0.093
D25Y	-0.948 ± 0.051
D25C	-0.864 ± 0.047
D25R	-0.997 ± 0.062
L22G	-0.229 ± 0.034
L22W	-0.102 ± 0.058
L22C	-0.124 ± 0.031
L22A	-0.095 ± 0.042
L22E	0.006 ± 0.083
L8V	-0.039 ± 0.027
L8R	-0.059 ± 0.031
L8P	-0.99 ± 0.094

Variant	abundance fitness
D46P	-0.864 ± 0.072
D46W	0.029 ± 0.053
D46H	0.009 ± 0.028
D46G	0.038 ± 0.025
D46C	-0.002 ± 0.026
D46E	0.066 ± 0.056
N31L	-0.174 ± 0.029
N31E	-0.038 ± 0.056
N31K	0.034 ± 0.06
N31M	-0.044 ± 0.051
N31F	-0.17 ± 0.029
N31Y	-0.057 ± 0.029
N31R	0.073 ± 0.027
W37S	0.004 ± 0.02
W37C	-0.016 ± 0.021
W37L	-0.003 ± 0.022
W37Y	0.024 ± 0.021
W37G	-0.049 ± 0.02
W37H	0.044 ± 0.022
W37Q	0.073 ± 0.042
W37P	-0.795 ± 0.037
R2I	-0.159 ± 0.027
R2K	0.027 ± 0.08
R2V	-0.232 ± 0.031

Variant	abundance fitness
R2F	-0.196 ± 0.032
E34F	-0.238 ± 0.031
E34I	-0.258 ± 0.037
E34T	-0.106 ± 0.041
E34A	0.023 ± 0.04
E34Y	-0.188 ± 0.034
E34R	0.065 ± 0.034
V4I	-0.205 ± 0.023
H30D	-0.122 ± 0.031
H30V	-0.285 ± 0.029
H30C	-0.362 ± 0.028
H30F	-0.39 ± 0.033
H30M	-0.151 ± 0.049
H30P	-0.789 ± 0.061
H30I	-0.163 ± 0.03
H30A	-0.4 ± 0.033
P14S	-0.085 ± 0.025
P14D	-0.023 ± 0.028
P14M	-0.045 ± 0.063
P14Y	-0.295 ± 0.033
P14K	-0.011 ± 0.061
P14H	-0.146 ± 0.032
I28C	-0.07 ± 0.021
I28H	-0.069 ± 0.022

Variant	abundance fitness
I28D	0.029 ± 0.022
I28N	-0.102 ± 0.022
I28L	-0.038 ± 0.022
I28R	-0.206 ± 0.021
M38Q	-0.548 ± 0.17
M38E	-1.24 ± 0.24
M38W	-0.438 ± 0.065
M38V	-0.305 ± 0.028
M38N	-0.623 ± 0.042
M38A	-0.396 ± 0.036
M38Y	-0.188 ± 0.028
D17L	-0.065 ± 0.033
D17G	-0.094 ± 0.026
D17H	-0.061 ± 0.03
D17N	-0.037 ± 0.032
V29D	-0.764 ± 0.043
V29Y	-0.879 ± 0.049
V29F	-0.913 ± 0.055
V29I	-0.057 ± 0.029
V29N	-0.823 ± 0.049
V29L	-0.473 ± 0.034
V29R	-0.636 ± 0.045
V29M	-0.644 ± 0.1
V29G	-0.861 ± 0.039

Variant	abundance fitness
V29T	-0.879 ± 0.059
D35H	-0.038 ± 0.03
D35P	-0.126 ± 0.044
D35C	-0.163 ± 0.032
D35L	-0.207 ± 0.033
R61Y	-0.076 ± 0.031
R61T	0.092 ± 0.037
R61I	-0.003 ± 0.029
R61W	0.07 ± 0.076
L50E	-0.395 ± 0.079
L50R	0.142 ± 0.027
L50T	-0.04 ± 0.032
L50A	-0.002 ± 0.03
L50M	0.004 ± 0.059
L50K	0.131 ± 0.063
Y10Q	-0.422 ± 0.089
Y10H	0.084 ± 0.045
Y10D	-1.04 ± 0.13
Y10M	-0.577 ± 0.096
Y10E	-0.838 ± 0.46
Y10K	-0.485 ± 0.15
Y10V	-0.728 ± 0.06
Y10A	-0.588 ± 0.088
Y10G	-0.84 ± 0.091

Variant	abundance fitness
R44M	-0.287 ± 0.054
R44N	-0.224 ± 0.03
R44I	-0.774 ± 0.041
R44Q	-0.314 ± 0.12
R44C	-0.47 ± 0.036
T16H	-0.784 ± 0.047
T16A	-0.746 ± 0.053
T16W	-0.688 ± 0.061
T16V	-0.894 ± 0.047
D15E	0.05 ± 0.05
D15R	-0.172 ± 0.03
D15H	-0.04 ± 0.034
D15M	-0.269 ± 0.077
D15N	-0.022 ± 0.037
D15I	-0.518 ± 0.045
R5S	-0.272 ± 0.027
R5K	0.052 ± 0.062
R5F	-0.398 ± 0.031
R5M	-0.025 ± 0.055
R5E	-0.138 ± 0.056
R5W	-0.531 ± 0.061
D54H	-0.225 ± 0.037
D54L	-0.281 ± 0.041
D54N	0.013 ± 0.036

Variant	abundance fitness
D54F	-0.262 ± 0.041
D54W	-0.184 ± 0.059
T45K	-1.05 ± 0.13
T45E	-0.997 ± 0.12
T45A	-0.735 ± 0.049
T45Q	-0.962 ± 0.25
T45F	-0.796 ± 0.042
T45W	-0.876 ± 0.1
T45M	-0.974 ± 0.11
E57K	-0.471 ± 0.12
E57S	-0.252 ± 0.031
E57G	-0.536 ± 0.048
E57D	-0.251 ± 0.053
E57W	-0.921 ± 0.17
E57T	-0.117 ± 0.042
E57C	-0.168 ± 0.041
F21Q	-0.74 ± 0.068
F21R	-0.855 ± 0.031
F21D	-0.862 ± 0.03
F21N	-0.83 ± 0.03
F21T	-0.907 ± 0.038
F21V	-0.478 ± 0.021
F21W	-0.92 ± 0.068
